The source of these data is publication PMC9503621.

The target of experiment [1] is large (50S) ribosomal subunit from Staphylococcus aureus (S. aureus) (UniProt Q2FW16).
Experiment [2] shares this target. The source holds these as a separate data set.

Chain of UniProt Q2FW16 (Q2FW16 whole entry, looked up): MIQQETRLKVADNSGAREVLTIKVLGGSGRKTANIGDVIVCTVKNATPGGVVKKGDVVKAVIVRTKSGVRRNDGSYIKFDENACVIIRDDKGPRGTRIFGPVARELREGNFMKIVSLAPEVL

Take “Ribosomal silencing factor S (RsfS) from Staphylococcus aureus, wild type (natural protein)”: the efficiency of translation inhibition in the S. aureus cell-free system at 6 mM Mg2+ (370 mM K+) in experiment [1] turned out to be 80%. Also, in experiment [2], the Mg2+ concentration at which half of the vacant 70S ribosomes are dissociated into 50S + 30S (sucrose gradient profiles, 2X molar excess of RsfS, 3-5 mM Mg2+) was 5 mM Mg2+ and the anti-association activity at 4 mM Mg2+ (relative amount of dissociated 50S + 30S subunits, sucrose gradient profiles) turned out to be 100 % activity.
“RsfS E70A mutant from Staphylococcus aureus (natural protein)” yielded an efficiency of translation inhibition in the S. aureus cell-free system at 6 mM Mg2+ (370 mM K+) in experiment [1] of 70%. Also, in experiment [2], the Mg2+ concentration at which half of the vacant 70S ribosomes are dissociated into 50S + 30S (sucrose gradient profiles, 2X molar excess of RsfS, 3-5 mM Mg2+) amounted to 4.4 mM Mg2+ and the loss of anti-association activity at 4 mM Mg2+ (relative amount of dissociated 50S + 30S subunits, sucrose gradient profiles) (% of activity lost) was 20.
Turning to “RsfS Y98A mutant from Staphylococcus aureus (natural protein)”, in experiment [1], the efficiency of translation inhibition in the S. aureus cell-free system at 6 mM Mg2+ (370 mM K+) is 35%. Moreover, in experiment [2], the Mg2+ concentration at which half of the vacant 70S ribosomes are dissociated into 50S + 30S (sucrose gradient profiles, 2X molar excess of RsfS, 3-5 mM Mg2+) was 3.4 mM Mg2+ and the loss of anti-association activity at 4 mM Mg2+ (relative amount of dissociated 50S + 30S subunits, sucrose gradient profiles) (% of activity lost) came out at 80.
